Columns and labels:
[1] = target: T1, human cadherin-17 (CDH17), endogenously expressed on human cancer cell lines (LS513, SNU-C1, PaTu8988s, … (human, UniProt Q12864 23-832)); assay: flow cytometry (iQue) on SNUC1 cells, 1 µg Ab
T1 construct: also called LS513 (Colon, CDH17+); HPAF2

[2] = target: T2, rat CDH17 fused to moxGFP, overexpressed on HEK293T cells (rat, UniProt P55281 22-827); assay: flow cytometry on HEK293T rat CDH17mGFP mass population, 20 µg/ml
T2 construct: whole, on cells; also called HEK293T Rat CDH17mGFP mass pop; rat CDH17-moxGFP
T2 sequence (P55281 22-827): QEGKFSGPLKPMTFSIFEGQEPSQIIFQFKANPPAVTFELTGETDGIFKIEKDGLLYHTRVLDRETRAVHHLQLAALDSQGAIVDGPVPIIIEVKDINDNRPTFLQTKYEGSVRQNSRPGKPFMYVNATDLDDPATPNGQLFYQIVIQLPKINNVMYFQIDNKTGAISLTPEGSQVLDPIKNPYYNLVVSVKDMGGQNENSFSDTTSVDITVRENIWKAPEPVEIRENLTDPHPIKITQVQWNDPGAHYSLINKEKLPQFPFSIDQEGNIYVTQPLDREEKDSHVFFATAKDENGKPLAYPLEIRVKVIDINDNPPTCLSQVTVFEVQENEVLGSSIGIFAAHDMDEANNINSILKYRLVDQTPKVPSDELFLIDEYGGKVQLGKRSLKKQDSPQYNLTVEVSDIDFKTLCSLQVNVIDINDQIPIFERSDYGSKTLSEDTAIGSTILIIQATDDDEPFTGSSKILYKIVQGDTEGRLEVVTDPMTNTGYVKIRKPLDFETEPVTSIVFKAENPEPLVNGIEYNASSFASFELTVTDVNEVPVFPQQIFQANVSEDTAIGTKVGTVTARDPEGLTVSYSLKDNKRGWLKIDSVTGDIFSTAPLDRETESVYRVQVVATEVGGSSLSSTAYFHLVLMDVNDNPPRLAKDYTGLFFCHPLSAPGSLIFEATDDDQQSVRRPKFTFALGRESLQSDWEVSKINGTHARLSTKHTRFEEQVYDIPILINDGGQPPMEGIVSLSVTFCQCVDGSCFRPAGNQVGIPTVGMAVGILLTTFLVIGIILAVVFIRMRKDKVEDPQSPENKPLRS

[3] = target: T1, human cadherin-17 (CDH17), endogenously …; assay: flow cytometry (iQue) on PATU8988S cells, 0.2 µg Ab
[4] = target: T3, human CDH17-mGFP fusion protein overexpressed on HEK293T cells (clone G11) (human, UniProt Q12864 23-832); assay: flow cytometry (iQue) on HEK293T CDH17 mGFP clone G11 (human), 0.2 µg Ab
T3 construct: also called HEK293T CDH17mGFP Clone G11; HEK293T Human CDH17mGFP G11; not shown: mGFP fluorescent protein fused to CDH17

[5] = target: T4, mouse CDH17-mGFP fusion protein overexpressed on HEK293T cells (mouse, UniProt Q9R100 26-827); assay: flow cytometry on HEK293T mouse CDH17mGFP mass population, 20 µg/ml
T4 construct: also called HEK293T Mouse CDH17mGFP mass; not shown: mGFP fluorescent protein
T4 sequence (Q9R100 26-827): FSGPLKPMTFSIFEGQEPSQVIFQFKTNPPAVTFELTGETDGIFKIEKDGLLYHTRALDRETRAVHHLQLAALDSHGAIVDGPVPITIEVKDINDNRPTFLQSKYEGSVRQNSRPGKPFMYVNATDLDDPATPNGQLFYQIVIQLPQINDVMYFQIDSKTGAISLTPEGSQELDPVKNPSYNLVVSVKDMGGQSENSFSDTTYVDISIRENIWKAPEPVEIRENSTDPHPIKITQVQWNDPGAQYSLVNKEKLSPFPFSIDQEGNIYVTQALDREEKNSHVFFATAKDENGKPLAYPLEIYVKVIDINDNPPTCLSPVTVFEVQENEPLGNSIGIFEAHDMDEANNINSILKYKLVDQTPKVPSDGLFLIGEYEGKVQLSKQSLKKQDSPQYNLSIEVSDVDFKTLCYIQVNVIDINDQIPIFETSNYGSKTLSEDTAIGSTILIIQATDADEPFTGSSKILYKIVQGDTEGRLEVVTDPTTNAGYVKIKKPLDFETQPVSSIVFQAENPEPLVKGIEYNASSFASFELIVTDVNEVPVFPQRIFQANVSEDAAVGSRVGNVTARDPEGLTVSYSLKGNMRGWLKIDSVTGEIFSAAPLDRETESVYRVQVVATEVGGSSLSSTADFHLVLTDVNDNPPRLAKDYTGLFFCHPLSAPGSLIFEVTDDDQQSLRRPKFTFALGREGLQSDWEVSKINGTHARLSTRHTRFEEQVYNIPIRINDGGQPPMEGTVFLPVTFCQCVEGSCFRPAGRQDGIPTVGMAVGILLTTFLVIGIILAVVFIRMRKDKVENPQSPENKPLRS

[6] = target: T2, rat CDH17 fused to moxGFP, …; assay: KinExA, cell-based, HEK293T rat CDH17mGFP mass population
Experimental: (§1) The cell-based antibody affinity (KD) of the anti-CDH17 antibodies was measured by KinExA 4000 (Sapidyne Instrument, Boise, Idaho). Briefly, HEK293T overexpressing CDH17-fluorescent protein fusion (i.e., human CDH17-mGFP, monkey CDH17-mGFP, mouse CDH17-mGFP or rat CDH17-mGFP) were detached with Versene and equilibrated with either 50 pM, 200 pM, 20 nM, or 50 nM antibody in 2% FBS/DMEM at 4° C. overnight. The cell concentration started at 5×10⁶ cells/mL or 1×10⁷ cells/mL and 2-fold serial dilutions were performed up to 10 points. The next day, the cells were centrifuged at 1500 rpm for 10 min and the supernatants were saved. […] In contrast, while the humanized anti-CDH17 antibody, 07-0653-h43, fails to bind mouse CDH17 protein, it binds rat CDH17 protein equally well as to human and monkey CDH17 protein such that its Kp is less than about 1 nM for human, monkey and rat CDH17 proteins with overlapping 95% confidence interval values.

[7] = target: T3, human CDH17-mGFP fusion protein …; assay: flow cytometry (iQue) on HEK293T CDH17 mGFP clone G11 (human), 1 µg Ab
[8] = target: T1, human cadherin-17 (CDH17), endogenously …; assay: flow cytometry (iQue) on LS513 cells, 1 µg Ab
[9] = target: T3, human CDH17-mGFP fusion protein …; assay: flow cytometry on HEK293T human CDH17mGFP G11, 20 µg/ml
[10] = target: T2, rat CDH17 fused to moxGFP, …; assay: KinExA, cell-based, HEK293T overexpressing rat CDH17 fusion (FIG. 16)
Experimental: as §1

[11] = target: T1, human cadherin-17 (CDH17), endogenously …; assay: flow cytometry (iQue) on LS513 cells, 0.2 µg Ab
[12] = target: T5, recombinant CDH17 extracellular domain (ECD) with 6x His tag (human, UniProt Q12864 23-787); assay: ELISA on recombinant CDH17 ECD-6xHis
T5 construct: also called Recombinant CDH17 ECD-6xhis tag

[13] = target: T1, human cadherin-17 (CDH17), endogenously …; assay: flow cytometry (iQue) on SNUC1 cells, 0.2 µg Ab
[14] = target: T1, human cadherin-17 (CDH17), endogenously …; assay: KinExA, cell-based, SNUC1 cells
[15] = target: T3, human CDH17-mGFP fusion protein …; assay: KinExA, cell-based, HEK293T overexpressing human CDH17-mGFP (FIG. 16)
Experimental: as §1

[16] = target: T1, human cadherin-17 (CDH17), endogenously …; assay: flow cytometry on LS513 cells (CDH17+), 20 µg/ml
[17] = target: T3, human CDH17-mGFP fusion protein …; assay: KinExA, cell-based, HEK293T CDH17mGFP clone G11
Experimental: as §1

[18] = target: T1, human cadherin-17 (CDH17), endogenously …; assay: flow cytometry (iQue) on PATU8988S cells, 1 µg Ab
[19] = target: T3, human CDH17-mGFP fusion protein …; assay: KinExA, cell-based, HEK293T human CDH17mGFP G11 (same value as r12)
Experimental: as §1

Antibody Binding Activity by Flow iQue [1]: 61400
Cross Reactivity by Flow [2]: 71800
Antibody Binding Activity by Flow iQue [3]: 48100
Antibody Binding Activity by Flow iQue [4]: 51800
Cross Reactivity by Flow [5]: 2460
Kd [6]: 0.535 nM
Antibody Binding Activity by Flow iQue [7]: 191000
Antibody Binding Activity by Flow iQue [8]: 1.83e+06
Cross Reactivity by Flow [9]: 51800
Kd [10]: < 1 nM
Antibody Binding Activity by Flow iQue [11]: 1.79e+06
EC50 [12]: 1.13 nM
Antibody Binding Activity by Flow iQue [13]: 77200
Kd [14]: 0.206 nM
Kd [15]: < 1 nM
Antibody Binding Activity by Flow Cytometry [16]: 24300
Kd [17]: 0.736 nM
Antibody Binding Activity by Flow iQue [18]: 52200
Kd [19]: 0.736 nM
B1: humanized anti-CDH17 antibody 07-0653-h43 (antibody, human IgG1, V domains shown)
VH: QVQLVQSGAEVKKPGASVKVSCKASGYTFTDYYMNWVRQAPGQGLEWMGVIYPYSGGIGYAQKFQGRVTMTVDKSTSTAYMELSSLRSEDTAVYYCARGRGDYFGLFDFWGQGTTVTVSS
VL: DIQLTQSPSSLSASVGDRVTITCRATSSLSYIHWYQQKPGKAPKPLIYEISKLASGVPSRFSGSGSGTDYTLTISSLQPEDFATYYCQQWNYPFTFGQGTKLEIK
notes: also called CDH17-653-h43

Source: US20250051437A1 (University of California, published 2025)
